Results reported in US20250282866A1 (VIGIL NEUROSCIENCE, published 2025).

T1: human TREM2 (human, UniProt Q9NZC2 19-174, limits assumed)
T1 construct: also called triggering receptor expressed on myeloid cells 2
T1 sequence: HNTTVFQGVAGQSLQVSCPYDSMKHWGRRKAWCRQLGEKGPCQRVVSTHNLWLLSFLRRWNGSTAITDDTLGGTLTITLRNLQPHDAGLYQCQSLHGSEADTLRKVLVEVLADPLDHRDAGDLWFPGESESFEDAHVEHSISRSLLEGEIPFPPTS


Columns and labels:
[1] = biological target: T1, human TREM2; test: 2nd screen 100 nM
[2] = biological target: T1, human TREM2; test: 1st screen (110 nM or 10 nM)

Binder	Binding Signal (fold over 6E7 Parental antibody) [1] [fold]	Binding Signal (fold over 6E7 Parental antibody) [2] [fold]
V6 (antibody, V domains shown) VH: EVQLVQSGAEVKKPGESLKISCKGSGYSFTSMWIAWVRQMPGKGLEWMGIIYPGDSDTRYSPSFQGQVTISADKSISTAYLQWSSLKASDTAMYFCARQRTFYYDSSDYFDYWGQGTLVTVSS VL: DIQMTQSPSSVSASVGDRVTITCRASQGISSWLAWYQQKPGKAPKLLIYAASSLQNGVPSRFSGSGSGTDFTLTISSLQPEDFATYFCQQADSFPRTFGQGTKLEIK	0.56	0.2
V8 (antibody, V domains shown) VH: EVQLVQSGAEVKKPGESLKISCKGSGYSFTSYWIAWVRQMPGKGLEWMGIIYPGDSDTKYSPSFQGQVTISADKSISTAYLQWSSLKASDTAMYFCARQRTFYYDSSDYFDYWGQGTLVTVSS VL: DIQMTQSPSSVSASVGDRVTITCRASQGISSWLAWYQQKPGKAPKLLIYAASSLQNGVPSRFSGSGSGTDFTLTISSLQPEDFATYFCQQADSFPRTFGQGTKLEIK	0.77	0.28
V35 (antibody, V domains shown) VH: EVQLVQSGAEVKKPGESLKISCKGSGYSFTSYWIAWVRQMPGKGLEWMGIIYPGDSDTRYSPSFQGQVTISADKSISTAYLQWSSLKASDTAMYFCARQRTFYYDSSDYFDYWGQGTLVTVSS VL: DIQMTQSPSSVSASVGDRVTITCRASQGISSWLAWYQQKPGKAPKLLIYAASSLQNGVPSRFSGSGSGTDFTLTISSLQPEDFATYFCQQAYSFPRTFGQGTKLEIK	0.29	0.21
V18 (antibody, V domains shown) VH: EVQLVQSGAEVKKPGESLKISCKGSGYSFTSYHIAWVRQMPGKGLEWMGIIYPGDSDTRYSPSFQGQVTISADKSISTAYLQWSSLKASDTAMYFCARQRTFYYDSSDYFDYWGQGTLVTVSS VL: DIQMTQSPSSVSASVGDRVTITCRASQGISSWLAWYQQKPGKAPKLLIYAASSLQNGVPSRFSGSGSGTDFTLTISSLQPEDFATYFCQQADSFPRTFGQGTKLEIK	0.42	0.17
V20 (antibody, V domains shown) VH: EVQLVQSGAEVKKPGESLKISCKGSGYSFTSYWIAWVRQMPGKGLEWMGRIYPGDSDTRYSPSFQGQVTISADKSISTAYLQWSSLKASDTAMYFCARQRTFYYDSSDYFDYWGQGTLVTVSS VL: DIQMTQSPSSVSASVGDRVTITCRASQGISSWLAWYQQKPGKAPKLLIYAASSLQNGVPSRFSGSGSGTDFTLTISSLQPEDFATYFCQQADSFPRTFGQGTKLEIK	0.52	0.18
V32 (antibody, V domains shown) VH: EVQLVQSGAEVKKPGESLKISCKGSGYSFTSYWIAWVRQMPGKGLEWMGIIYPGDSDTRYSNSFQGQVTISADKSISTAYLQWSSLKASDTAMYFCARQRTFYYDSSDYFDYWGQGTLVTVSS VL: DIQMTQSPSSVSASVGDRVTITCRASQGISSWLAWYQQKPGKAPKLLIYAASSLQNGVPSRFSGSGSGTDFTLTISSLQPEDFATYFCQQADSFPRTFGQGTKLEIK	0.89	0.82
V21 (antibody, V domains shown) VH: EVQLVQSGAEVKKPGESLKISCKGSGYSFTSYWIAWVRQMPGKGLEWMGIIYPGDSDTRYSPSFQGQVTISADKSISTAYLQWSSLKASDTAMYFCARQRTFYYDSSDFFDYWGQGTLVTVSS VL: DIQMTQSPSSVSASVGDRVTITCRASQGISSWLAWYQQKPGKAPKLLIYAASSLQNGVPSRFSGSGSGTDFTLTISSLQPEDFATYFCQQADSFPRTFGQGTKLEIK	0.68	0.76
V34 (antibody, V domains shown) VH: EVQLVQSGAEVKKPGESLKISCKGSGYSFTSYWIAWVRQMPGKGLEWMGIIYPGDSDTRYSPSFQGQVTISADKSISTAYLQWSSLKASDTAMYFCARQRTFYYDSSDYFDYWGQGTLVTVSS VL: DIQMTQSPSSVSASVGDRVTITCRASQGISSWLAWYQQKPGKAPKLLIYAASSLQDGVPSRFSGSGSGTDFTLTISSLQPEDFATYFCQQADSFPRTFGQGTKLEIK	1.02	0.34
V10 (antibody, V domains shown) VH: EVQLVQSGAEVKKPGESLKISCKGSGYSFTSYWIAWVRQMPGKGLEWMGIIYPGDSDTRYSPSFQGQVTISADKSISTAYLQWSSLKASDTAMYFCARQRTFYYDSSDYFDYWGQGTLVTVSS VL: DIQMTQSPSSVSASVGDRVTITCRASQGISSWLAWYQQKPGKAPKLLIYSASSLQNGVPSRFSGSGSGTDFTLTISSLQPEDFATYFCQQADSFPRTFGQGTKLEIK	0.7	0.76

Now from value to binder:

Binding Signal (fold over 6E7 Parental antibody) [1] [fold]	Binding Signal (fold over 6E7 Parental antibody) [2] [fold]	Binder
0.54	0.67	V9 (antibody, V domains shown) VH: EVQLVQSGAEVKKPGESLKISCKGSGYSFTSYWIAWVRQMPGKGLEWMGIIYPGDSDTRYSPSFQGQVTISADKSISTAYLQWSSLKASDTAMYFCARQRGFYYDSSDYFDYWGQGTLVTVSS VL: DIQMTQSPSSVSASVGDRVTITCRASQGISSWLAWYQQKPGKAPKLLIYAASSLQNGVPSRFSGSGSGTDFTLTISSLQPEDFATYFCQQADSFPRTFGQGTKLEIK
0.33	0.2	V43 (antibody, V domains shown) VH: EVQLVQSGAEVKKPGESLKISCKGSGYSFTSYWIAWVRQMPGKGLEWMGIIYPGDSGTRYSPSFQGQVTISADKSISTAYLQWSSLKASDTAMYFCARQRTFYYDSSDYFDYWGQGTLVTVSS VL: DIQMTQSPSSVSASVGDRVTITCRASQGISSWLAWYQQKPGKAPKLLIYAASSLQNGVPSRFSGSGSGTDFTLTISSLQPEDFATYFCQQADSFPRTFGQGTKLEIK
0.71	0.3	V22 (antibody, V domains shown) VH: EVQLVQSGAEVKKPGESLKISCKGSGYSFTSYWIAWVRQMPGKGLEWMGIIYPGDSDTRYSPSFQGQVTISADKSISTAYLQWSSLKASDTAMYFCARQRTFYYDSSDYFDYWGQGTLVTVSS VL: DIQMTQSPSSVSASVGDRVTITCRASQGISSWLAWYQQKPGKAPKLLIYRASSLQNGVPSRFSGSGSGTDFTLTISSLQPEDFATYFCQQADSFPRTFGQGTKLEIK
0.48	0.59	V19 (antibody, V domains shown) VH: EVQLVQSGAEVKKPGESLKISCKGSGYSFTSSWIAWVRQMPGKGLEWMGIIYPGDSDTRYSPSFQGQVTISADKSISTAYLQWSSLKASDTAMYFCARQRTFYYDSSDYFDYWGQGTLVTVSS VL: DIQMTQSPSSVSASVGDRVTITCRASQGISSWLAWYQQKPGKAPKLLIYAASSLQNGVPSRFSGSGSGTDFTLTISSLQPEDFATYFCQQADSFPRTFGQGTKLEIK
0.41	0.45	V42 (antibody, V domains shown) VH: EVQLVQSGAEVKKPGESLKISCKGSGYSFTSAWIAWVRQMPGKGLEWMGIIYPGDSDTRYSPSFQGQVTISADKSISTAYLQWSSLKASDTAMYFCARQRTFYYDSSDYFDYWGQGTLVTVSS VL: DIQMTQSPSSVSASVGDRVTITCRASQGISSWLAWYQQKPGKAPKLLIYAASSLQNGVPSRFSGSGSGTDFTLTISSLQPEDFATYFCQQADSFPRTFGQGTKLEIK
0.32	0.11	V7 (antibody, V domains shown) VH: EVQLVQSGAEVKKPGESLKISCKGSGYSFTSEWIAWVRQMPGKGLEWMGIIYPGDSDTRYSPSFQGQVTISADKSISTAYLQWSSLKASDTAMYFCARQRTFYYDSSDYFDYWGQGTLVTVSS VL: DIQMTQSPSSVSASVGDRVTITCRASQGISSWLAWYQQKPGKAPKLLIYAASSLQNGVPSRFSGSGSGTDFTLTISSLQPEDFATYFCQQADSFPRTFGQGTKLEIK
0.4	0.4	V23 (antibody, V domains shown) VH: EVQLVQSGAEVKKPGESLKISCKGSGYSFTSYWIAWVRQMPGKGLEWMGIIYPGDSDTRYSPSFQGQVTISADKSISTAYLQWSSLKASDTAMYFCARQRTFYYDSSDYFDYWGQGTLVTVSS VL: DIQMTQSPSSVSASVGDRVTITCRASQGISSWLAWYQQKPGKAPKLLIYAASSLQNGVPSRFSGSGSGTDFTLTISSLQPEDFATYFCQQADSFPLTFGQGTKLEIK
0.42	0.79	V11 (antibody, V domains shown) VH: EVQLVQSGAEVKKPGESLKISCKGSGYSFTSYWIAWVRQMPGKGLEWMGIIYPGDSDTRYSPSFQGQVTISADKSISTAYLQWSSLKASDTAMYFCARQRTFYYDSSDYFDYWGQGTLVTVSS VL: DIQMTQSPSSVSASVGDRVTITCRASQGISSWLAWYQQKPGKAPKLLIYAASSLQNGVPSRFSGSGSGTDFTLTISSLQPEDFATYFCQQAASFPRTFGQGTKLEIK
0.34	0.23	V33 (antibody, V domains shown) VH: EVQLVQSGAEVKKPGESLKISCKGSGYSFTSYWIAWVRQMPGKGLEWMGIIYPGDSDTRYSPSFQGQVTISADKSISTAYLQWSSLKASDTAMYFCARQRTFYGDSSDYFDYWGQGTLVTVSS VL: DIQMTQSPSSVSASVGDRVTITCRASQGISSWLAWYQQKPGKAPKLLIYAASSLQNGVPSRFSGSGSGTDFTLTISSLQPEDFATYFCQQADSFPRTFGQGTKLEIK
0.72	0.79	V30 (antibody, V domains shown) VH: EVQLVQSGAEVKKPGESLKISCKGSGSSFTSYWIAWVRQMPGKGLEWMGIIYPGDSDTRYSPSFQGQVTISADKSISTAYLQWSSLKASDTAMYFCARQRTFYYDSSDYFDYWGQGTLVTVSS VL: DIQMTQSPSSVSASVGDRVTITCRASQGISSWLAWYQQKPGKAPKLLIYAASSLQNGVPSRFSGSGSGTDFTLTISSLQPEDFATYFCQQADSFPRTFGQGTKLEIK
